Test results from PMC7016005 (2020).

B1: mouse Twist1, wildtype [mouse] / mouse E2A [mouse] (parent complex)
chain 1: MMQDVSSSPVSPADDSLSNSEEEPDRQQPASGKRGARKRRSSRRSAGGSAGPGGATGGGIGGGDEPGSPAQGKRGKKSAGGGGGGGAGGGGGGGGGSSSGGGSPQSYEELQTQRVMANVRERQRTQSLNEAFAALRKIIPTLPSDKLSKIQTLKLAARYIDFLYQVLQSDELDSKMASCSYVAHERLSYAFSVWRMEGAWSMSASH
chain 2: MMNQSQRMAPVGSDKELSDLLDFSMMFPLPVANGKSRPASLGGTQFAGSGLEDRPSSGSWGSSDQNSSSFDPSRTYSEGAHFSDSHSSLPPSTFLGAGLGGKGSERNAYATFGRDTSVGTLSQAGFLPGELSLSSPGPLSPSGIKSSSQYYPSFPSNPRRRAADGGLDTQPKKVRKVPPGLPSSVYPPSSGDSYSRDAAAYPSAKTPSSAYPSPFYVADGSLHPSAELWSTPSQVGFGPMLGDGSSPLPLAPGSSSVGSGTFGGLQQQDRMGYQLHGSEVNGSLPAVSSFSAAPGTYSGTSGHTPPVSGAAAESLLGTRGTTASSSGDALGKALASIYSPDHSSNNFSPSPSTPVGSPQGLPGTSQWPRAGAPSALSPNYDAGLHGLSKMEDRLDEAIHVLRSHAVGTASDLHGLLPGHGALTTSFTGPMSLGGRHAGLVGGSHPEEGLTSGASLLHNHASLPSQPSSLPDLSQRPPDSYSGLGRAGTTAGASEIKREEKEDEEIASVADAEEDKKDLKVPRTRTSPDEDEDDLLPPEQKAEREKERRVANNARERLRVRDINEAFKELGRMCQLHLSSEKPQTKLLILHQAVAVILSLEQQVRERNLNPKAACLKRREEEKVSGVVGDPQLALSAAHPGLGEAHNPAGHL

Variants of: B1
Experiment: co-immunoprecipitation (Flag-IP), blot quantified by ImageJ; Flag-E2A bait, Twist1-Myc prey; n = 3; parent: 1; read off a plot

| response | Variant |
| --- | --- |
| ~0.52 relative expression (/GAPDH) | chain 1 A190T |
| ~0.05 relative expression (/GAPDH) | chain 1 S192P |
| ~1.6 relative expression (/GAPDH) | chain 1 F191S |
